In publication PMC7822847, “Structural insights into vesicle amine transport-1 (VAT-1) as a member of the NADPH-dependent quinone oxidoreductase family” (Scientific Reports, 2021):

Tests used:
[1] = biological target: the molecule itself; experiment: crystal structure; free form of VAT-1 (43–393), 2.3 Å; crystals from 100 mM BisTris pH 6.0, 200 mM sodium nitrate, 22% PEG 3350, 20 °C
[2] = biological target: the molecule itself; experiment: SEC; Superdex 200 (10/30), 10 mM Tris–HCl pH 7.2, 100 mM NaCl, 0.5 mM TCEP, 8 °C; low concentration (samples loaded at 10, 20, 50 µM; also with 10-fold molar NADP); monomers to dimer
[3] = biological target: the molecule itself; experiment: SEC; Superdex 200 (10/30), 10 mM Tris–HCl pH 7.2, 100 mM NaCl, 0.5 mM TCEP, 8 °C; higher concentrations (loaded at 300 µM, no NADP); dimers to tetramer (dimer–dimer)

B1: N-truncated human VAT-1 (43–393 residues) (domain or fragment, UniProt Q99536 43-393, looked up)
chain: ASPPLLRCLVLTGFGGYDKVKLQSRPAAPPAPGPGQLTLRLRACGLNFADLMARQGLYDRLPPLPVTPGMEGAGVVIAVGEGVSDRKAGDRVMVLNRSGMWQEEVTVPSVQTFLIPEAMTFEEAAALLVNYITAYMVLFDFGNLQPGHSVLVHMAAGGVGMAAVQLCRTVENVTVFGTASASKHEALKENGVTHPIDYHTTDYVDEIKKISPKGVDIVMDPLGGSDTAKGYNLLKPMGKVVTYGMANLLTGPKRNLMALARTWWNQFSVTALQLLQANRAVCGFHLGYLDGEVELVSGVVARLLALYNQGHIKPHIDSVWPFEKVADAMKQMQEKKNVGKVLLVPGPEKEN
notes: Written as the protomer; homodimer in both crystal forms, dimer to tetramer (dimer-dimer) in solution by SEC; also called vesicle amine transport protein-1; source: E. coli Rosetta 2 (DE3), purified (Glutathione Sepharose, HRV 3C cleavage, HiTrap SP, Superdex 200); not shown: GST, N-terminal, cleaved
With B1 the “stoichiometry N” value [1] was 2.

B2: human VAT-1 (full-length, 1–393 residues) (natural protein, UniProt Q99536 1-393, looked up)
chain: MSDEREVAEAATGEDASSPPPKTEAASDPQHPAASEGAAAAAASPPLLRCLVLTGFGGYDKVKLQSRPAAPPAPGPGQLTLRLRACGLNFADLMARQGLYDRLPPLPVTPGMEGAGVVIAVGEGVSDRKAGDRVMVLNRSGMWQEEVTVPSVQTFLIPEAMTFEEAAALLVNYITAYMVLFDFGNLQPGHSVLVHMAAGGVGMAAVQLCRTVENVTVFGTASASKHEALKENGVTHPIDYHTTDYVDEIKKISPKGVDIVMDPLGGSDTAKGYNLLKPMGKVVTYGMANLLTGPKRNLMALARTWWNQFSVTALQLLQANRAVCGFHLGYLDGEVELVSGVVARLLALYNQGHIKPHIDSVWPFEKVADAMKQMQEKKNVGKVLLVPGPEKEN
notes: Written as the protomer; dimer at low concentration, tetramer at 300 µM by SEC; also called vesicle amine transport protein-1; source: E. coli Rosetta 2 (DE3), purified (Glutathione Sepharose, HRV 3C cleavage, HiTrap SP, Superdex 200); not shown: GST, N-terminal, cleaved
In the case of B2, the “stoichiometry N” value [2] is reported as 2 and the “stoichiometry N” value [3] is reported as 4.
